Assay results taken from US20260297183 (published 2026).
Positions count from the first letter of the chain named.

B1: H3_W99H_VL-par (antibody, V domains shown)
VH: QVQLVESGGGVVQPGRSLRLSCAASGFTFSDYGMHWVRQAPGKGLEWVAYISSGGTTIYYADTVKGRFTISRDNSKNTLYLQMNSLRAEDTAVYYCARHTNLYAMDYWGQGTTVTVSS
VL: DIVLTQSPDSLAVSLGERATINCRASKSVSTSGYSYMHWYQQKPGQPPKFLIYLASNLESGVPDRFSGSGSGTDFTLTISSLQAEDVAVYYCQHSREVPYTFGGGTKVEIKR
B2: H3_W99H_L2 (antibody, V domains shown)
VH: B1 VH
VL: B1 VL with L58K
B3: 51B12 parent (51B12_VH_VL-par) (antibody, V domains shown)
VH: B1 VH with H99W
VL: B1 VL
B4: H3_W99H_L1 (51B12_W99H_L1) (antibody, V domains shown)
VH: B1 VH
VL: B1 VL with S32Q

target: T1, huZIP12-ECD-GST (human, UniProt Q504Y0); assay: SPR, extended dissociation re-test

Question: For B1, which Kd is on record?
Answer: The Kd was ~0.3 nM.

Question: Which Kd does the source give for B2 here?
Answer: The Kd was ~0.3 nM.

Question: B3 was tested. Which Kd did it give?
Answer: Its Kd is 1.1 nM.

Question: With B4 as the binder, how does the Kd read?
Answer: Its Kd is ~0.3 nM.

target: T1, huZIP12-ECD-GST; assay: SPR

Question: B1 was tested. Which Kd did it give?
Answer: Its Kd is ~0.5 nM.

Question: For B2, which Kd is on record?
Answer: The Kd was ~0.5 nM.
